Source: patent US20110091994A1, “Methods for Screening Compounds for Treating and/or Preventing an Hepatitis C Virus Infection” (priority 2008, published 2011)
Where two headings read alike, the source gives them in different places.

B1: NELL1 (protein, UniProt Q92832 22-810, looked up)
Protein kinase C-binding …: FGMDPDLQMDIVTELDLVNTTLGVAQVSGMHNASKAFLFQDIEREIHAAPHVSEKLIQLFRNKSEFTILATVQQKPSTSGVILSIRELEHSYFELESSGLRDEIRYHYIHNGKPRTEALPYRMADGQWHKVALSVSASHLLLHVDCNRIYERVIDPPDTNLPPGINLWLGQRNQKHGLFKGIIQDGKIIFMPNGYITQCPNLNHTCPTCSDFLSLVQGIMDLQELLAKMTAKLNYAETRLSQLENCHCEKTCQVSGLLYRDQDSWVDGDHCRNCTCKSGAVECRRMSCPPLNCSPDSLPVHIAGQCCKVCRPKCIYGGKVLAEGQRILTKSCRECRGGVLVKITEMCPPLNCSEKDHILPENQCCRVCRGHNFCAEGPKCGENSECKNWNTKATCECKSGYISVQGDSAYCEDIDECAAKMHYCHANTVCVNLPGLYRCDCVPGYIRVDDFSCTEHDECGSGQHNCDENAICTNTVQGHSCTCKPGYVGNGTICRAFCEEGCRYGGTCVAPNKCVCPSGFTGSHCEKDIDECSEGIIECHNHSRCVNLPGWYHCECRSGFHDDGTYSLSGESCIDIDECALRTHTCWNDSACINLAGGFDCLCPSGPSCSGDCPHEGGLKHNGQVWTLKEDRCSVCSCKDGKIFCRRTACDCQNPSADLFCCPECDTRVTSQCLDQNGHKLYRSGDNWTHSCQQCRCLEGEVDCWPLTCPNLSCEYTAILEGECCPRCVSDPCLADNITYDIRKTCLDSYGVSRLSGSVWTMAGSPCTTCKCKNGRVCCSVDFECLQNN
B2: NEFL (protein, UniProt P07196 2-543, looked up)
Neurofilament light …: SSFSYEPYYSTSYKRRYVETPRVHISSVRSGYSTARSAYSSYSAPVSSSLSVRRSYSSSSGSLMPSLENLDLSQVAAISNDLKSIRTQEKAQLQDLNDRFASFIERVHELEQQNKVLEAELLVLRQKHSEPSRFRALYEQEIRDLRLAAEDATNEKQALQGEREGLEETLRNLQARYEEEVLSREDAEGRLMEARKGADEAALARAELEKRIDSLMDEISFLKKVHEEEIAELQAQIQYAQISVEMDVTKPDLSAALKDIRAQYEKLAAKNMQNAEEWFKSRFTVLTESAAKNTDAVRAAKDEVSESRRLLKAKTLEIEACRGMNEALEKQLQELEDKQNADISAMQDTINKLENELRTTKSEMARYLKEYQDLLNVKMALDIEIAAYRKLLEGEETRLSFTSVGSITSGYSQSSQVFGRSAYGGLQTSSYLMSTRSFPSYYTSHVQEEQIEVEETIEAAKAEEAKDEPPSEGEAEEEEKDKEEAEEEEAAEEEEAAKEESEEAKEEEEGGEGEEGEETKEAEEEEKKVEGAGEEQAAKKKD
B3: LRRTM1 (protein, UniProt Q86UE6 35-522, looked up)
Leucine-rich repeat …: APSGCPQLCRCEGRLLYCEALNLTEAPHNLSGLLGLSLRYNSLSELRAGQFTGLMQLTWLYLDHNHICSVQGDAFQKLRRVKELTLSSNQITQLPNTTFRPMPNLRSVDLSYNKLQALAPDLFHGLRKLTTLHMRANAIQFVPVRIFQDCRSLKFLDIGYNQLKSLARNSFAGLFKLTELHLEHNDLVKVNFAHFPRLISLHSLCLRRNKVAIVVSSLDWVWNLEKMDLSGNEIEYMEPHVFETVPHLQSLQLDSNRLTYIEPRILNSWKSLTSITLAGNLWDCGRNVCALASWLNNFQGRYDGNLQCASPEYAQGEDVLDAVYAFHLCEDGAEPTSGHLLSAVTNRSDLGPPASSATTLADGGEGQHDGTFEPATVALPGGEHAENAVQIHKVVTGTMALIFSFLIVVLVLYVSWKCFPASLRQLRQCFVTQRRKQKQKQTMHQMAAMSAQEYYVDYKPNHIEGALVIINEYGSCTCHQQPARECEV
B4: MLXIP (protein, UniProt Q9HAP2 2-919, looked up)
MLX-interacting protein: AADVFMCSPRRPRSRGRQVLLKPQVSEDDDDSDTDEPSPPPASGAATPARAHASAAPPPPRAGPGREEPPRRQQIIHSGHFMVSSPHREHPPKKGYDFDTVNKQTCQTYSFGKTSSCHLSIDASLTKLFECMTLAYSGKLVSPKWKNFKGLKLQWRDKIRLNNAIWRAWYMQYLEKRKNPVCHFVTPLDGSVDVDEHRRPEAITTEGKYWKSRIEIVIREYHKWRTYFKKRLQQHKDEDLSSLVQDDDMLYWHKHGDGWKTPVPMEEDPLLDTDMLMSEFSDTLFSTLSSHQPVAWPNPREIAHLGNADMIQPGLIPLQPNLDFMDTFEPFQDLFSSSRSIFGSMLPASASAPVPDPNNPPAQESILPTTALPTVSLPDSLIAPPTAPSLAHMDEQGCEHTSRTEDPFIQPTDFGPSEPPLSVPQPFLPVFTMPLLSPSPAPPPISPVLPLVPPPATALNPPAPPTFHQPQKFAGVNKAPSVITHTASATLTHDAPATTFSQSQGLVITTHHPAPSAAPCGLALSPVTRPPQPRLTFVHPKPVSLTGGRPKQPHKIVPAPKPEPVSLVLKNARIAPAAFSGQPQAVIMTSGPLKREGMLASTVSQSNVVIAPAAIARAPGVPEFHSSILVTDLGHGTSSPPAPVSRLFPSTAQDPLGKGEQVPLHGGSPQVTVTGPSRDCPNSGQASPCASEQSPSPQSPQNNCSGKSDPKNVAALKNRQMKHISAEQKRRFNIKMCFDMLNSLISNNSKLTSHAITLQKTVEYITKLQQERGQMQEEARRLREEIEELNATIISCQQLLPATGVPVTRRQFDHMKDMFDEYVKTRTLQNWKFWIFSIIIKPLFESFKGMVSTSSLEELHRTALSWLDQHCSLPILRPMVLSTLRQLSTSTSILTDPAQLPEQASKAVTRIGKRLGES
B5: NEFM (protein, UniProt P07197 2-916, looked up)
Neurofilament medium …: SYTLDSLGNPSAYRRVTETRSSFSRVSGSPSSGFRSQSWSRGSPSTVSSSYKRSMLAPRLAYSSAMLSSAESSLDFSQSSSLLNGGSGPGGDYKLSRSNEKEQLQGLNDRFAGYIEKVHYLEQQNKEIEAEIQALRQKQASHAQLGDAYDQEIRELRATLEMVNHEKAQVQLDSDHLEEDIHRLKERFEEEARLRDDTEAAIRALRKDIEEASLVKVELDKKVQSLQDEVAFLRSNHEEEVADLLAQIQASHITVERKDYLKTDISTALKEIRSQLESHSDQNMHQAEEWFKCRYAKLTEAAEQNKEAIRSAKEEIAEYRRQLQSKSIELESVRGTKESLERQLSDIEERHNHDLSSYQDTIQQLENELRGTKWEMARHLREYQDLLNVKMALDIEIAAYRKLLEGEETRFSTFAGSITGPLYTHRPPITISSKIQKPKVEAPKLKVQHKFVEEIIEETKVEDEKSEMEEALTAITEELAVSMKEEKKEAAEEKEEEPEAEEEEVAAKKSPVKATAPEVKEEEGEKEEEEGQEEEEEEDEGAKSDQAEEGGSEKEGSSEKEEGEQEEGETEAEAEGEEAEAKEEKKVEEKSEEVATKEELVADAKVEKPEKAKSPVPKSPVEEKGKSPVPKSPVEEKGKSPVPKSPVEEKGKSPVPKSPVEEKGKSPVSKSPVEEKAKSPVPKSPVEEAKSKAEVGKGEQKEEEEKEVKEAPKEEKVEKKEEKPKDVPEKKKAESPVKEEAVAEVVTITKSVKVHLEKETKEEGKPLQQEKEKEKAGGEGGSEEEGSDKGAKGSRKEDIAVNGEVEGKEEVEQETKEKGSGREEEKGVVTNGLDLSPADEKKGGDKSEEKVVVTKTVEKITSEGGDGATKYITKSVTVTQKVEEHEETFEEKLVSTKKVEKVTSHAIVKEVTQSD
B6: MORC4 (protein, UniProt Q8TE76 1-937, looked up)
MORC family CW-type zinc …: MLLYRGAPAGPGAPGCGLARPGGGPQAFGIRLSTMSPRYLQSNSSSHTRPFSAIAELLDNAVDPDVSARTVFIDVEEVKNKSCLTFTDDGCGMTPHKLHRMLSFGFTDKVIKKSQCPIGVFGNGFKSGSMRLGKDALVFTKNGGTLTVGLLSQTYLECVQAQAVIVPIVPFNQQNKKMIITEDSLPSLEAILNYSIFNRENDLLAQFDAIPGKKGTRVLIWNIRRNKNGKSELDFDTDQYDILVSDFDTEEKMTGGVTSELPETEYSLRAFCGILYMKPRMKIFLRQKKVTTQMIAKSLANVEYDTYKPTFTNKQVRITFGFSCKNSNQFGIMMYHNNRLIKSFEKVGCQVKPTRGEGVGVIGVIECNFLKPAYNKQDFEYTKEYRLTINALAQKLNAYWKEKTSQDNFETSTVARPIPKVPDQTWVQCDECLKWRKLPGKIDPSMLPARWFCYYNSHPKYRRCSVPEEQELTDEDLCLSKAKKQEQTVEEKKKMPMENENHQVFSNPPKILTVQEMAGLNNKTIGYEGIHSPSVLPSGGEESRSPSLQLKPLDSSVLQFSSKYKWILGEEPVEKRRRLQNEMTTPSLDYSMPAPYRRVEAPVAYPEGENSHDKSSSERSTPPYLFPEYPEASKNTGQNREVSILYPGAKDQRQGSLLPEELEDQMPRLVAEESNRGSTTINKEEVNKGPFVAVVGVAKGVRDSGAPIQLIPFNREELAERRKAVESWNPVPYSVASAAIPAAAIGEKARGYEESEGHNTPKLKNQRELEELKRTTEKLERVLAERNLFQQKVEELEQERNHWQSEFKKVQHELVIYSTQEAEGLYWSKKHMGYRQAEFQILKAELERTKEEKQELKEKLKETETHLEMLQKAQVSYRTPEGDDLERALAKLTRLRIHVSYLLTSVLPHLELREIGYDSEQVDGILYTVLEANHILD
B7: NAP1L1 (protein, UniProt P55209 2-388, looked up)
Nucleosome assembly protein …: ADIDNKEQSELDQDLDDVEEVEEEETGEETKLKARQLTVQMMQNPQILAALQERLDGLVETPTGYIESLPRVVKRRVNALKNLQVKCAQIEAKFYEEVHDLERKYAVLYQPLFDKRFEIINAIYEPTEEECEWKPDEEDEISEELKEKAKIEDEKKDEEKEDPKGIPEFWLTVFKNVDLLSDMVQEHDEPILKHLKDIKVKFSDAGQPMSFVLEFHFEPNEYFTNEVLTKTYRMRSEPDDSDPFSFDGPEIMGCTGCQIDWKKGKNVTLKTIKKKQKHKGRGTVRTVTKTVSNDSFFNFFAPPEVPESGDLDDDAEAILAADFEIGHFLRERIIPRSVLYFTGEAIEDDDDDYDEEGEEADEEGEEEGDEENDPDYDPKKDQNPAEC

Assays:
[1] = target: T1, HCV ORFs (Gal4-DB fusions) (Hepatitis C virus genotype 1b, UniProt Q9WMX2); type: binding, HCV genotype 1b, isolate con1; settings: human protein as prey
T1 construct: expressed in transfected cells; host or cells: Saccharomyces cerevisiae MAV203 (IMAP1) / AH109 (IMAP2)

[2] = system: HCV ORFs (Gal4-DB fusions); type: binding, HCV genotype 1b, isolate con1; settings: human protein listed by gene symbol; the value names the HCV protein it interacts with
HCV proteins = target: T2, HCV proteins (Hepatitis C virus genotype 1b, UniProt Q9WMX2); assay: Validation by Y2H pairwise matrices; type: binding;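 further: yeast two-hybrid pairwise tests of interactions first found in Y2H screens of HCV bait proteins against human cDNA libraries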
T2 construct: expressed in transfected cells

[3] = validation of interaction with HCV protein NS3
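Wherever IMAP Y2H IMAP1 (number of IST) is given: yeast two-hybrid screens using HCV genotype 1b proteins fused to Gal4-DB as baits against prey cDNA libraries from human spleen and foetal brain, IMAP1 via transformation and IMAP2 via mating.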
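Wherever IMAP Y2H IMAP2 (number of IST) is given: yeast two-hybrid screens using HCV genotype 1b proteins fused to Gal4-DB as baits against prey cDNA libraries from human spleen and foetal brain, IMAP1 via transformation and IMAP2 via mating.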
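Wherever Interaction with viral protein is given: yeast two-hybrid screens using HCV genotype 1b proteins fused to Gal4-DB as baits against prey cDNA libraries from human spleen and foetal brain, IMAP1 via transformation and IMAP2 via mating.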

Row | Molecule | IMAP Y2H IMAP1 (number of IST) ([1]; HCV protein NS3 as bait) | Interaction with viral protein [2] | Y2H matrices (HCV proteins; [3]) | IMAP Y2H IMAP1 (number of IST) ([1]; HCV protein CORE as bait) | Y2H matrices (HCV proteins; validation of interaction with HCV protein CORE) | IMAP Y2H IMAP2 (number of IST) ([1]; HCV protein NS3 as bait) | IMAP Y2H IMAP1 (number of IST) ([1]; HCV protein NS5A as bait) | IMAP Y2H IMAP2 (number of IST) ([1]; HCV protein NS5A as bait) | Y2H matrices (HCV proteins; interaction with HCV protein NS5A)
1 | B1 | 3 | NS3 | + |  |  |  |  |  | 
2 | B2 | 1 | NS3 | + |  |  |  |  |  | 
3 | B3 |  | CORE |  | 1 | + |  |  |  | 
4 | B4 | 1 | NS3 | + |  |  |  |  |  | 
5 | B5 | 1 | NS3 | + |  |  |  |  |  | 
6 | B6 | 1 | NS3 | + |  |  |  |  |  | 
7 | B7 |  | NS3 and NS5A |  |  |  | 1 | 1 | 31 | +
